Data from publication PMC5686545.

Key:
[1] = target: microtubules of porcine brain tubulin (pig (endogenous in brain)) (UniProt P02550)
[2] = target: GFP-tagged human cytoplasmic dynein complex (human) (UniProt Q14204); assay: TIRF microscopy of purified proteins on static GMPCPP microtubules (single-particle colocalisation); 5 nM GFP-dynein, 10 nM pig dynactin, 200 nM BicD2-N, 50 nM mCherry-Lis1; immobilised GMPCPP microtubules; assay buffer AB
[3] = target: GFP-tagged human cytoplasmic dynein complex (human) (UniProt Q14204); assay: TIRF microscopy of purified proteins on static GMPCPP microtubules (single-particle colocalisation); 5 nM GFP-dynein, 10 nM pig dynactin, 200 nM BicD2-N, 50 nM mCherry-Lis1; immobilised GMPCPP microtubules; HEPES-based buffer (60 mM HEPES pH 7.4, 50 mM K-acetate, 2 mM MgCl2, 10% glycerol, 2 mM ATP)

native dynactin complex from pig brain (from UniProt A0A287B8J2 1-1281; A0A5G2QD80 1-405; F2Z5G5 1-349)
initiation probability of processive DDB runs within the first 360 nm from the growing microtubule plus end, without EB1 (average 0.05 per 360 nm segment anywhere on the microtubule) [1]: 0.33

B1: mCherry-Lis1 (human Lissencephaly-1) (natural protein)
chain: MVLSQRQRDELNRAIADYLRSNGYEEAYSVFKKEAELDVNEELDKKYAGLLEKKWTSVIRLQKKVMELESKLNEAKEEFTSGGPLGQKRDPKEWIPRPPEKYALSGHRSPVTRVIFHPVFSVMVSASEDATIKVWDYETGDFERTLKGHTDSVQDISFDHSGKLLASCSADMTIKLWDFQGFECIRTMHGHDHNVSSVAIMPNGDHIVSASRDKTIKMWEVQTGYCVKTFTGHREWVRMVRPNQDGTLIASCSNDQTVRVWVVATKECKAELREHEHVVECISWAPESSYSSISEATGSETKKSGKPGPFLLSGSRDKTIKMWDVSTGMCLMTLVGHDNWVRGVLFHSGGKFILSCADDKTLRVWDYKNKRCMKTLNAHEHFVTSLDFHKTAPYVVTGSVDQTVKVWECR
percent of processive DDB particles with Lis1 bound [2]: 9% | percent of processive DDB particles with Lis1 bound [3]: 16%
